Data: patent publication US20050282743A1, “Molecular interactions in cells” (Arbor Vita Corporation, priority 2001, published 2005)
“And” between values parts separate entries of the source, which are not always exact repeats. Identical values can stand only once.

Columns and labels:
[1] = molecular target: T1, GST-TIP-1 (Example 3) (human), O14907; test: G assay titration, PDZ 0.1 ug/ml
T1 chain: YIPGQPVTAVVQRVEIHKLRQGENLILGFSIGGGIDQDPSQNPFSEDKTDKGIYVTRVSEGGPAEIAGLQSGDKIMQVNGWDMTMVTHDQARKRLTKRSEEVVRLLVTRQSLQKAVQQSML

[2] = molecular target: GST-DLG1 PDZ domains 1, 2 (Homo sapiens), Q12959; test: G assay titration, PDZ 0.1 ug/ml
[3] = molecular target: GST-Atrophin-1 Interacting Protein PDZ domain 2 (Homo sapiens (Human)), Q86UL8; test: G' assay; also: key of the grades not given here
[4] = molecular target: GST-BAI-1 Associated Protein PDZ domain 3 (Homo sapiens (Human)), Q96QZ7; test: G assay titration, PDZ 0.5 ug/ml
[5] = molecular target: T2, GST-DLG1 PDZ domain 3 (Homo sapiens), Q12959; test: G' assay; also: key of the grades not given here
T2 chain: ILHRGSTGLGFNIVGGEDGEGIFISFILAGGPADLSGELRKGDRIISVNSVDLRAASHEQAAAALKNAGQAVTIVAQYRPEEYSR

[6] = molecular target: T3, GST-AIPC PDZ domain 3 (Homo sapiens (Human)), O15018; test: G' assay; also: key of the grades not given here
T3 chain: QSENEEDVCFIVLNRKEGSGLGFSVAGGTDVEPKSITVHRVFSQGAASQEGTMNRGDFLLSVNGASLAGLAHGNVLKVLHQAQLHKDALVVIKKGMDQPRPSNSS

[7] = molecular target: T4, GST-prIL16 PDZ domains 1, 2, Q14005; test: G' assay; also: key of the grades not given here
T4 chain: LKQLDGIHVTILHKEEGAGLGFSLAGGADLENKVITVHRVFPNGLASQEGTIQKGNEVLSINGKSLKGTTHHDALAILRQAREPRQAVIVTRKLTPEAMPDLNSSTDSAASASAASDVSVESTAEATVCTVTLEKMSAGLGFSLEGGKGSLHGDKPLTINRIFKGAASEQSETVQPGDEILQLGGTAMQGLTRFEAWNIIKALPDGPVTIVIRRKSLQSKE

[8] = molecular target: T5, GST-MUPP1 PDZ domain 4 (Homo sapiens (Human)), O75970; test: G' assay; also: key of the grades not given here
T5 chain: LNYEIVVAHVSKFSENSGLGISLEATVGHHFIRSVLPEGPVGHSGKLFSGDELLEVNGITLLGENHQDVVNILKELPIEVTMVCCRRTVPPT

[9] = molecular target: T6, GST-ENIGMA PDZ domain 1 (Homo sapiens (Human)), Q9NR12; test: G' assay; also: key of the grades not given here
T6 chain: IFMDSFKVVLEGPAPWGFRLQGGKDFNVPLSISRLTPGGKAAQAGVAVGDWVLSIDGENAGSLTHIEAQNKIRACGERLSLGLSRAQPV

[10] = molecular target: T7, GST-LIM Protein PDZ domain 1 (Homo sapiens (Human)), Q96HC4; test: G' assay; also: key of the grades not given here
T7 chain: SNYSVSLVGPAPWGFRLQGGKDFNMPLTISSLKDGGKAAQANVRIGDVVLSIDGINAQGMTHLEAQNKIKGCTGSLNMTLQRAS

[11] = molecular target: GST-KIAA1634 PDZ domain 5 (Homo sapiens (Human)), Q5TCQ9; test: G assay titration, PDZ 1 ug/ml
[12] = molecular target: T7, GST-LIM Protein PDZ domain 1 (Homo …); test: G assay titration, PDZ 1 ug/ml
[13] = molecular target: T8, GST-novel PDZ gene PDZ domain 2 (Homo sapiens (Human)), Q9H5P4; test: G' assay; also: key of the grades not given here
T8 chain: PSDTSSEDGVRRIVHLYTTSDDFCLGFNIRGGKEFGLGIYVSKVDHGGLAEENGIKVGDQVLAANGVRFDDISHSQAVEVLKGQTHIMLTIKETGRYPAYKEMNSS

[14] = molecular target: T9, GST-KIAA0303 PDZ domain 1 (Homo sapiens (Human)), O15021; test: G' assay; also: key of the grades not given here
T9 chain: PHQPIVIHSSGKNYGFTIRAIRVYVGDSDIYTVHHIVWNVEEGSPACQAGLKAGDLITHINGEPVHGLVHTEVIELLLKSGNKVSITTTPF

[15] = molecular target: T10, GST-GRIP 1 PDZ domain 7 (Homo sapiens (Human)), Q9Y3R0; test: G' assay; also: key of the grades not given here
T10 chain: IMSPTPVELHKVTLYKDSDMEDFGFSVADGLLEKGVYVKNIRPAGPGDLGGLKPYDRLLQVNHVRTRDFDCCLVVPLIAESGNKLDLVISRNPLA

[16] = molecular target: T11, GST-TIAM 2 PDZ domain 1 (Homo sapiens (Human)), Q8IVF5; test: G' assay; also: key of the grades not given here
T11 chain: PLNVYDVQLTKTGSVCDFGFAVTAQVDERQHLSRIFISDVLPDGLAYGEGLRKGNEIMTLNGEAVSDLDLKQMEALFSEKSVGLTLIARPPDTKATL

[17] = molecular target: T12, GST-MUPP1 PDZ domain 7 (Homo sapiens (Human)), O75970; test: G' assay; also: key of the grades not given here
T12 chain: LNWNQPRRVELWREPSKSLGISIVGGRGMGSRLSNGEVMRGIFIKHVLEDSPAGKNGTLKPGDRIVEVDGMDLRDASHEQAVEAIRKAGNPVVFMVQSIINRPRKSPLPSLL

[18] = molecular target: T13, GST-MUPP1 PDZ domain 9 (Homo sapiens (Human)), O75970; test: G' assay; also: key of the grades not given here
T13 chain: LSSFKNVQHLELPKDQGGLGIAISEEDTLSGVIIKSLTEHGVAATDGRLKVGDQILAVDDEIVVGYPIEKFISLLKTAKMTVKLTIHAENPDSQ

[19] = molecular target: T14, GST-FLJ 10324 PDZ domain 1 [GST: P08515]; test: G assay titration, PDZ 1 ug/ml
T14 chain: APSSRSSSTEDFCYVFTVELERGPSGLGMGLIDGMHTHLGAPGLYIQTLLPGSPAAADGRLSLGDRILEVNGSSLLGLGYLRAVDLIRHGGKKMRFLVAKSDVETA

GST-Atrophin-1 Interacting Protein PDZ domain 2 (Homo sapiens (Human)), Q86UL8, sequence (Q86UL8 other isoform, or with tags, fused parts or gaps): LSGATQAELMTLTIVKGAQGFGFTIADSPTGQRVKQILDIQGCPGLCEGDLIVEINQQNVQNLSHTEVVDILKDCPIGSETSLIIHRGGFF
GST-BAI-1 Associated Protein PDZ domain 3 (Homo sapiens (Human)), Q96QZ7, sequence (Q96QZ7 other isoform, or with tags, fused parts or gaps): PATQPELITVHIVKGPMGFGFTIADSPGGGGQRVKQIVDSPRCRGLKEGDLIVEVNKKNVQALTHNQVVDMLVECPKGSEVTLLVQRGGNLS
GST-KIAA1634 PDZ domain 5 (Homo sapiens (Human)), Q5TCQ9, sequence (Q5TCQ9 other isoform, or with tags, fused parts or gaps): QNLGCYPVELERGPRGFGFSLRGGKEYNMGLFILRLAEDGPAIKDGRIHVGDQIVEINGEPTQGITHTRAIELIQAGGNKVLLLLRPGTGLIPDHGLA

B1: TAX (peptide)
peptide: QISPGGLEPPSEKHFRETEV
modifications: not checked
With B1 the Kd [1] was 5 nM and 6 nM, the maximum OD (450 nm) [1] was 3.3 OD and 2.1 OD and the Kd [2] was 200 nM and 130 nM. For the same binder, the maximum OD (450 nm) [2] was 1.6 OD and 3.4 OD and the Classification [3] was 1 A450 class.

B2: AdenoE4 typ9 (peptide)
peptide: VGTLLLERVIFPSVKIATLV
modifications: not checked
B2 was tested, and the Kd [4] was 75 nM.

B3: ephrin B2 (peptide)
peptide: ILNSIQVMRAQMNQIQSVEV
modifications: not checked
B3 gave a Classification [5] of 1 A450 class, a Classification [6] of 1 A450 class and a Classification [7] of 2 A450 class. The Classification [8] was 1 A450 class.

B4: a-actinin 2 (peptide)
peptide: VPGALDYAAFSSALYGESDL
modifications: not checked
B4 gave a Classification [9] of 5 A450 class, a Classification [10] of 4 A450 class and a Kd [11] of 2000 nM. The Kd [12] was 2000 nM.

B5: KIA 1481 (peptide)
peptide: PIPAGGCTFSGIFPTLTSPL
modifications: not checked
B5 showed a Classification [13] of 1 A450 class.

B6: CSPG4 (chondroitin sulfae proteoglycan 4, melanoma-associated) (peptide)
peptide: ELLQFCRTPNPALKNGQYWV
modifications: not checked
In the case of B6, the Classification [14] is reported as 1 A450 class, the Classification [15] is reported as 5 A450 class and the Classification [16] is reported as 3 A450 class.

B7: MINT-1 (peptide)
peptide: KTMPAAMYRLLTAQEQPVYI
modifications: not checked
For B7, the Classification [17] was 3 A450 class, the Classification [18] was 3 A450 class and the Kd [19] was 1000 nM.
